Results from publication PMC10720262 (2023).
Numbering of substitutions follows the chain as printed.

B1: CL-509177 (antibody, V domains shown)
VH: QVQLVESGGGVVQPGRSLRLSCAASGFSFSSYGMHWVRQTPGKGLEWVAIIWYDGSNKFYADSVKGRFIISRDNSKNTLYLQMNSLRAEDTAVYYCARDGGYSTSAGDFDYWGQGTLVTVSS
VL: EIVLTQSPGTLSLSPGERATLSCRASQSVSSSYLAWYQQKPGQAPRLLIYGASSRATGIPDRFSGRGSGTDFTLTISRLEPEDFAVYYCQQYVSSFTFGPGTKVDIN
modifications: peptides N-terminally acetylated and C-terminally amidated
B2: CL-462911 (antibody, V domains shown)
VH: QVHLVESGGGVVQPGRSLTLSCAASGFTFSSCGMHWVRQAPGKGLEWLAVIWYDGSNKYYADSVKGRFTISRDNSKNTLYLQMNSLRAEDTAVYYCARDGGYVRDYYYGMDVWGQGTTVTVSS
VL: not shown
modifications: peptides N-terminally acetylated and C-terminally amidated
B3: CL-447737 (antibody, V domains shown)
VH: QVQLVESGGGVVQPGRSLRLSCAASGFTFSSYGMHWVRQAPGKGLEWVAIIWFDGSNIFYEDSVKGRFTISRDNSKNTLYLQMNSLRAEDTAVYYCAKVWNYDSDYYSMDVWGQGTTVTVSS
VL: not shown
modifications: peptides N-terminally acetylated and C-terminally amidated
B4: CL-510632 (antibody, V domains shown)
VH: QVQLVESGGGVVQPGRSLRLSCAASGFTFSNYGMHWVRQAPGKGLEWVAVIWYDGSNKFYADSVKGRFTISRDNSKNTLYLQTNSLRAEDTAVYYCARVYYYDSGNYLDYWGQGTLVAVSS
VL: DIQMTQSPSSVSASVGDRVTITCRASQGINNCLAWYQQKPGKAPKLLIYAASSLQSGVPSRFSGSGSGTDFTLTISNLQPEDFATYCCQQANSFPWTFGQGTKVEIK
modifications: peptides N-terminally acetylated and C-terminally amidated
B5: CL-441734 (antibody, V domains shown)
VH: QVQLVESGGGVVQPGRSLRLSCAASGFTFSSHGMHWVRQAPVKGLEWVAVIWYDGSNKYYADSVKGRFTISRDNSKNTLYLQMNSLRAEDTAVYYCARVEYSRSSGDYYYYGLDVWGQGTTVTVSS
VL: EIVMTQSPATLSVSPGERATLSCRASQSVSSNLAWYQQKPGQAPRLLIYGASTRATGIPARFSGSGSGTEFTLTISSLQSEDFAVYYCQQYDNWWTFGQGTKVEIK
modifications: peptides N-terminally acetylated and C-terminally amidated
B6: CL-449724 (antibody, V domains shown)
VH: QVHLVASGGGVVQPGRSLRLSCEVTGFTFSSYGMHWVRQDPGRGLEWVAIIWYDGSNKFYADSVKGRFTISRDNSKNTLYLQMNSLRAEDTAVYYCARSYGILTGYQTKYGMDVWGQGTTVTVSS
VL: not shown
modifications: peptides N-terminally acetylated and C-terminally amidated
B7: CL-510453 (antibody, V domains shown)
VH: QVQLVESGGGVVQPGRSLRLSCAASGFTFSSYGMHWVRQAPDKGLEWVAIIWYDGSKKYYADSVKGRFTVSRDNSKNTLYLQMNSLRAEDTAVFYCARSFDYESGGFYSFDYWGQGTLVSVSS
VL: DIQMTQSPSTLSASVGDRVTITCRASQSISSWLAWYQQKPGKAPKLLIYRASSLASGVPSRFSGSGSGTEFTLTISSLQPDDFATYYCQQYNSYWTFGQGTKVEFK
modifications: peptides N-terminally acetylated and C-terminally amidated
B8: CL-513279 (antibody, V domains shown)
VH: QVQLVESGGGVVQPGRSLRLSCAASGFTFSNFGMHWVRQAPVKGLEWVALIWYDGSNKFYADSVQGRFTISRDNSKNILYLQMNSLRAEDTAVYYCAKVEARGVDYHSYGMDVWGQGTTVTVSS
VL: B7 VL with K45Q, R50K, A55E, N92K, S93Y, F105I
modifications: peptides N-terminally acetylated and C-terminally amidated
B9: CL-510700 (antibody, V domains shown)
VH: QVQLVESGGGVVQPGRSLRLSCAASGFTFSDFGMHWVRQTPGKGLEWVAIIWYDGSNKFYADSVKGRFTISRDNSKNTLFLQMNSLRAEDTAVYYCARSGVYYGSGSHFDYWGQGTLVTVSS
VL: B7 VL with Q38L, R50K, S53N, A55E, S56T, S60L, W95L, F105I
modifications: peptides N-terminally acetylated and C-terminally amidated
B10: CL-447376 (antibody, V domains shown)
VH: QVQLVESGGGVVQPGRSLRLSCAASGFNFNNYGMHWVRQAPVMGLEWVAIIWYDGSNKFYADSVKGRFTISRDNSQNTLFLQMNSLRAEDTGIYYCARSGGEMGNFDYWGQGTLVTVSS
VL: DIVMTQSPLSLPVTLGQPASISCRSSQSLVYSNGDTYLDWFQLRPGQSPRRLIYKVSHRDSGVPDRFSGSGSGTEFTLRISRVEAEDVGIYYCMQGTHYWTFGQGTEVEIK
modifications: peptides N-terminally acetylated and C-terminally amidated

Target: PfCSP full length (Plasmodium falciparum (isolate NF54), UniProt P19597)
Sequence (P19597 20-375): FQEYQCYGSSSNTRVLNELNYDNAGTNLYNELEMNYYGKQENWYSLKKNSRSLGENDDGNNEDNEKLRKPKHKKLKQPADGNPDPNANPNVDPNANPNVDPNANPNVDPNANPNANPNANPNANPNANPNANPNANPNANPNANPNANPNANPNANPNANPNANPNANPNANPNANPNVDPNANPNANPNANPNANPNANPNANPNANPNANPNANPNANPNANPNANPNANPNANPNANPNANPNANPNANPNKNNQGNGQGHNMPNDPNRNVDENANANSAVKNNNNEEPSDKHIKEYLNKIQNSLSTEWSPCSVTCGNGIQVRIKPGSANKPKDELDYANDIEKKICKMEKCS
Assay: ELISA AUC

Binder	binding score
B1	1.17
B2	1.4
B3	2.4
B4	1.9
B5	2.3
B6	2.5
B7	2.07
B8	2.06
B9	1.9
B10	2.5
